B1: S75D variant of PD1B244 (antibody, V domains shown)
VH: QVQLVQSGAEVKKPGSSVKVSCKASGGTFSSYAISWVRQAPGQGLEWMGGIIPIFDTANYAQKFQGRVTITADEDTSTAYMELSSLRSEDTAVYYCARPGLAAAYDTGSLDYWGQGTLVTVSS
VL: EIVLTQSPATLSLSPGERATLSCRASQSVRSYLAWYQQKPGQAPRLLIYDASNRATGIPARFSGSGSGTDFTLTISSLEPEDFAVYYCQQRNYWPLTFGQGTKVEIK
B2: S84D variant of PD1B244 (antibody, V domains shown)
VH: QVQLVQSGAEVKKPGSSVKVSCKASGGTFSSYAISWVRQAPGQGLEWMGGIIPIFDTANYAQKFQGRVTITADESTSTAYMELDSLRSEDTAVYYCARPGLAAAYDTGSLDYWGQGTLVTVSS
VL: EIVLTQSPATLSLSPGERATLSCRASQSVRSYLAWYQQKPGQAPRLLIYDASNRATGIPARFSGSGSGTDFTLTISSLEPEDFAVYYCQQRNYWPLTFGQGTKVEIK
B3: S88D variant of PD1B244 (antibody, V domains shown)
VH: QVQLVQSGAEVKKPGSSVKVSCKASGGTFSSYAISWVRQAPGQGLEWMGGIIPIFDTANYAQKFQGRVTITADESTSTAYMELSSLRDEDTAVYYCARPGLAAAYDTGSLDYWGQGTLVTVSS
VL: EIVLTQSPATLSLSPGERATLSCRASQSVRSYLAWYQQKPGQAPRLLIYDASNRATGIPARFSGSGSGTDFTLTISSLEPEDFAVYYCQQRNYWPLTFGQGTKVEIK

Target: human PD1 antigen (human, UniProt Q15116 25-167)
Assay: SPR

human PD1 antigen, sequence (Q15116 25-167): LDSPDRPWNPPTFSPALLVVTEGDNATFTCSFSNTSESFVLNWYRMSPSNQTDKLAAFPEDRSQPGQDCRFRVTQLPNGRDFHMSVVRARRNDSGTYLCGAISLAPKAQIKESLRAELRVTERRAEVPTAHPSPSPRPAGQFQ

Row | Binder | Kd [nM]
1 | B1 | 1.38
2 | B2 | 1.51
3 | B3 | 1.36

— US20190031764A1 (published 2019)
